These binders were tested against T1, CD3 epsilon homodimer protein (UniProt P07766 23-126) (assay: SPR Biacore T200, CD3 epsilon homodimer on chip, antibody as analyte;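 also: homodimer amine-coupled to a CM4 sensor chip, run at 25 °C in HBS-EP+ buffer, with kinetic parameters derived in Biacore T200 Evaluation Software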).
T1 construct: also called CD3 (CD3 epsilon)
T1 sequence (P07766 23-126): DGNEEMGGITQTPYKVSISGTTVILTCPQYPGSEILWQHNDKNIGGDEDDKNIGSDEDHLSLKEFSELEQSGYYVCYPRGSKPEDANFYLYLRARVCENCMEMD

KD ratio (KD of CE115HA000 / KD of altered form)	Binder
4.04	CE115HA000 H chain altered form K52F (antibody, human IgG1, kappa, L234A L235A, N297A, name in Kabat numbering, one-arm antibody) heavy: QVQLVESGGGVVQPGRSLRLSCAASGFTFSNAWMHWVRQAPGKGLEWVAQIFAKSNNYATYYAESVKGRFTISRDDSKNSLYLQMNSLKTEDTAVYYCRYVHYGAYYGVDAWGQGTTVTVSSASTKGPSVFPLAPSSKSTSGGTAALGCLVKDYFPEPVTVSWNSGALTSGVHTFPAVLQSSGLYSLSSVVTVPSSSLGTQTYICNVNHKPSNTKVDKKVEPKSCDKTHTCPPCPAPEAAGGPSVFLFPPKPKDTLMISRTPEVTCVVVDVSHEDPEVKFNWYVDGVEVHNAKTKPREEQYASTYRVVSVLTVLHQDWLNGKEYKCKVSNKALPAPIEKTISKAKGQPREPQVYTLPPSRCELTKNQVSLSCAVKGFYPSDIAVEWESNGQPENNYKTTPPVLDSDGSFFLVSKLTVDKSRWQQGNVFSCSVMHEALHNHYTQKSLSLSPDYKDDDDK EPKSSDKTHTCPPCPAPELLGGPSVFLFPPKPKDTLMISRTPEVTCVVVDVSHEDPEVKFNWYVDGVEVHNAKTKPREEQYNSTYRVVSVLTVLHQDWLNGKEYKCKVSNKALPAPIEKTISKAKGQPREPQVCTLPPSRDELTKNQVSLWCLVKGFYPSDIAVEWESNGQPENNYKTTPPVLDSDGSFFLYSKLTVDKSRWQQGNVFSCSVMHEALHNRYTQKSLSLSP light: DIVMTQSPLSLPVTPGEPASISCRSSQSLVHSNRNTYLHWYQQKPGQAPRLLIYKVSNRFSGVPDRFSGSGSGTDFTLKISRVEAEDVGVYYCGQGTQVPYTFGQGTKLEIKRTVAAPSVFIFPPSDEQLKSGTASVVCLLNNFYPREAKVQWKVDNALQSGNSQESVTEQDSKDSTYSLSSTLTLSKADYEKHKVYACEVTHQGLSSPVTKSFNRGEC
3.54	CE115HA000 H chain altered form K52I (antibody, human IgG1, kappa, L234A L235A, N297A, name in Kabat numbering, one-arm antibody) heavy: QVQLVESGGGVVQPGRSLRLSCAASGFTFSNAWMHWVRQAPGKGLEWVAQIIAKSNNYATYYAESVKGRFTISRDDSKNSLYLQMNSLKTEDTAVYYCRYVHYGAYYGVDAWGQGTTVTVSSASTKGPSVFPLAPSSKSTSGGTAALGCLVKDYFPEPVTVSWNSGALTSGVHTFPAVLQSSGLYSLSSVVTVPSSSLGTQTYICNVNHKPSNTKVDKKVEPKSCDKTHTCPPCPAPEAAGGPSVFLFPPKPKDTLMISRTPEVTCVVVDVSHEDPEVKFNWYVDGVEVHNAKTKPREEQYASTYRVVSVLTVLHQDWLNGKEYKCKVSNKALPAPIEKTISKAKGQPREPQVYTLPPSRCELTKNQVSLSCAVKGFYPSDIAVEWESNGQPENNYKTTPPVLDSDGSFFLVSKLTVDKSRWQQGNVFSCSVMHEALHNHYTQKSLSLSPDYKDDDDK EPKSSDKTHTCPPCPAPELLGGPSVFLFPPKPKDTLMISRTPEVTCVVVDVSHEDPEVKFNWYVDGVEVHNAKTKPREEQYNSTYRVVSVLTVLHQDWLNGKEYKCKVSNKALPAPIEKTISKAKGQPREPQVCTLPPSRDELTKNQVSLWCLVKGFYPSDIAVEWESNGQPENNYKTTPPVLDSDGSFFLYSKLTVDKSRWQQGNVFSCSVMHEALHNRYTQKSLSLSP light: DIVMTQSPLSLPVTPGEPASISCRSSQSLVHSNRNTYLHWYQQKPGQAPRLLIYKVSNRFSGVPDRFSGSGSGTDFTLKISRVEAEDVGVYYCGQGTQVPYTFGQGTKLEIKRTVAAPSVFIFPPSDEQLKSGTASVVCLLNNFYPREAKVQWKVDNALQSGNSQESVTEQDSKDSTYSLSSTLTLSKADYEKHKVYACEVTHQGLSSPVTKSFNRGEC
2.65	CE115HA000 H chain altered form K52H (antibody, human IgG1, kappa, L234A L235A, N297A, name in Kabat numbering, one-arm antibody) heavy: QVQLVESGGGVVQPGRSLRLSCAASGFTFSNAWMHWVRQAPGKGLEWVAQIHAKSNNYATYYAESVKGRFTISRDDSKNSLYLQMNSLKTEDTAVYYCRYVHYGAYYGVDAWGQGTTVTVSSASTKGPSVFPLAPSSKSTSGGTAALGCLVKDYFPEPVTVSWNSGALTSGVHTFPAVLQSSGLYSLSSVVTVPSSSLGTQTYICNVNHKPSNTKVDKKVEPKSCDKTHTCPPCPAPEAAGGPSVFLFPPKPKDTLMISRTPEVTCVVVDVSHEDPEVKFNWYVDGVEVHNAKTKPREEQYASTYRVVSVLTVLHQDWLNGKEYKCKVSNKALPAPIEKTISKAKGQPREPQVYTLPPSRCELTKNQVSLSCAVKGFYPSDIAVEWESNGQPENNYKTTPPVLDSDGSFFLVSKLTVDKSRWQQGNVFSCSVMHEALHNHYTQKSLSLSPDYKDDDDK EPKSSDKTHTCPPCPAPELLGGPSVFLFPPKPKDTLMISRTPEVTCVVVDVSHEDPEVKFNWYVDGVEVHNAKTKPREEQYNSTYRVVSVLTVLHQDWLNGKEYKCKVSNKALPAPIEKTISKAKGQPREPQVCTLPPSRDELTKNQVSLWCLVKGFYPSDIAVEWESNGQPENNYKTTPPVLDSDGSFFLYSKLTVDKSRWQQGNVFSCSVMHEALHNRYTQKSLSLSP light: DIVMTQSPLSLPVTPGEPASISCRSSQSLVHSNRNTYLHWYQQKPGQAPRLLIYKVSNRFSGVPDRFSGSGSGTDFTLKISRVEAEDVGVYYCGQGTQVPYTFGQGTKLEIKRTVAAPSVFIFPPSDEQLKSGTASVVCLLNNFYPREAKVQWKVDNALQSGNSQESVTEQDSKDSTYSLSSTLTLSKADYEKHKVYACEVTHQGLSSPVTKSFNRGEC
92.1	CE115HA000 H chain altered form K52S (antibody, human IgG1, kappa, L234A L235A, N297A, name in Kabat numbering, one-arm antibody) heavy: QVQLVESGGGVVQPGRSLRLSCAASGFTFSNAWMHWVRQAPGKGLEWVAQISAKSNNYATYYAESVKGRFTISRDDSKNSLYLQMNSLKTEDTAVYYCRYVHYGAYYGVDAWGQGTTVTVSSASTKGPSVFPLAPSSKSTSGGTAALGCLVKDYFPEPVTVSWNSGALTSGVHTFPAVLQSSGLYSLSSVVTVPSSSLGTQTYICNVNHKPSNTKVDKKVEPKSCDKTHTCPPCPAPEAAGGPSVFLFPPKPKDTLMISRTPEVTCVVVDVSHEDPEVKFNWYVDGVEVHNAKTKPREEQYASTYRVVSVLTVLHQDWLNGKEYKCKVSNKALPAPIEKTISKAKGQPREPQVYTLPPSRCELTKNQVSLSCAVKGFYPSDIAVEWESNGQPENNYKTTPPVLDSDGSFFLVSKLTVDKSRWQQGNVFSCSVMHEALHNHYTQKSLSLSPDYKDDDDK EPKSSDKTHTCPPCPAPELLGGPSVFLFPPKPKDTLMISRTPEVTCVVVDVSHEDPEVKFNWYVDGVEVHNAKTKPREEQYNSTYRVVSVLTVLHQDWLNGKEYKCKVSNKALPAPIEKTISKAKGQPREPQVCTLPPSRDELTKNQVSLWCLVKGFYPSDIAVEWESNGQPENNYKTTPPVLDSDGSFFLYSKLTVDKSRWQQGNVFSCSVMHEALHNRYTQKSLSLSP light: DIVMTQSPLSLPVTPGEPASISCRSSQSLVHSNRNTYLHWYQQKPGQAPRLLIYKVSNRFSGVPDRFSGSGSGTDFTLKISRVEAEDVGVYYCGQGTQVPYTFGQGTKLEIKRTVAAPSVFIFPPSDEQLKSGTASVVCLLNNFYPREAKVQWKVDNALQSGNSQESVTEQDSKDSTYSLSSTLTLSKADYEKHKVYACEVTHQGLSSPVTKSFNRGEC
3.29	CE115HA000 H chain altered form K52N (antibody, human IgG1, kappa, L234A L235A, N297A, name in Kabat numbering, one-arm antibody) heavy: QVQLVESGGGVVQPGRSLRLSCAASGFTFSNAWMHWVRQAPGKGLEWVAQINAKSNNYATYYAESVKGRFTISRDDSKNSLYLQMNSLKTEDTAVYYCRYVHYGAYYGVDAWGQGTTVTVSSASTKGPSVFPLAPSSKSTSGGTAALGCLVKDYFPEPVTVSWNSGALTSGVHTFPAVLQSSGLYSLSSVVTVPSSSLGTQTYICNVNHKPSNTKVDKKVEPKSCDKTHTCPPCPAPEAAGGPSVFLFPPKPKDTLMISRTPEVTCVVVDVSHEDPEVKFNWYVDGVEVHNAKTKPREEQYASTYRVVSVLTVLHQDWLNGKEYKCKVSNKALPAPIEKTISKAKGQPREPQVYTLPPSRCELTKNQVSLSCAVKGFYPSDIAVEWESNGQPENNYKTTPPVLDSDGSFFLVSKLTVDKSRWQQGNVFSCSVMHEALHNHYTQKSLSLSPDYKDDDDK EPKSSDKTHTCPPCPAPELLGGPSVFLFPPKPKDTLMISRTPEVTCVVVDVSHEDPEVKFNWYVDGVEVHNAKTKPREEQYNSTYRVVSVLTVLHQDWLNGKEYKCKVSNKALPAPIEKTISKAKGQPREPQVCTLPPSRDELTKNQVSLWCLVKGFYPSDIAVEWESNGQPENNYKTTPPVLDSDGSFFLYSKLTVDKSRWQQGNVFSCSVMHEALHNRYTQKSLSLSP light: DIVMTQSPLSLPVTPGEPASISCRSSQSLVHSNRNTYLHWYQQKPGQAPRLLIYKVSNRFSGVPDRFSGSGSGTDFTLKISRVEAEDVGVYYCGQGTQVPYTFGQGTKLEIKRTVAAPSVFIFPPSDEQLKSGTASVVCLLNNFYPREAKVQWKVDNALQSGNSQESVTEQDSKDSTYSLSSTLTLSKADYEKHKVYACEVTHQGLSSPVTKSFNRGEC
0.8	CE115HA000 H chain altered form K52R (antibody, human IgG1, kappa, L234A L235A, N297A, name in Kabat numbering, one-arm antibody) heavy: QVQLVESGGGVVQPGRSLRLSCAASGFTFSNAWMHWVRQAPGKGLEWVAQIRAKSNNYATYYAESVKGRFTISRDDSKNSLYLQMNSLKTEDTAVYYCRYVHYGAYYGVDAWGQGTTVTVSSASTKGPSVFPLAPSSKSTSGGTAALGCLVKDYFPEPVTVSWNSGALTSGVHTFPAVLQSSGLYSLSSVVTVPSSSLGTQTYICNVNHKPSNTKVDKKVEPKSCDKTHTCPPCPAPEAAGGPSVFLFPPKPKDTLMISRTPEVTCVVVDVSHEDPEVKFNWYVDGVEVHNAKTKPREEQYASTYRVVSVLTVLHQDWLNGKEYKCKVSNKALPAPIEKTISKAKGQPREPQVYTLPPSRCELTKNQVSLSCAVKGFYPSDIAVEWESNGQPENNYKTTPPVLDSDGSFFLVSKLTVDKSRWQQGNVFSCSVMHEALHNHYTQKSLSLSPDYKDDDDK EPKSSDKTHTCPPCPAPELLGGPSVFLFPPKPKDTLMISRTPEVTCVVVDVSHEDPEVKFNWYVDGVEVHNAKTKPREEQYNSTYRVVSVLTVLHQDWLNGKEYKCKVSNKALPAPIEKTISKAKGQPREPQVCTLPPSRDELTKNQVSLWCLVKGFYPSDIAVEWESNGQPENNYKTTPPVLDSDGSFFLYSKLTVDKSRWQQGNVFSCSVMHEALHNRYTQKSLSLSP light: DIVMTQSPLSLPVTPGEPASISCRSSQSLVHSNRNTYLHWYQQKPGQAPRLLIYKVSNRFSGVPDRFSGSGSGTDFTLKISRVEAEDVGVYYCGQGTQVPYTFGQGTKLEIKRTVAAPSVFIFPPSDEQLKSGTASVVCLLNNFYPREAKVQWKVDNALQSGNSQESVTEQDSKDSTYSLSSTLTLSKADYEKHKVYACEVTHQGLSSPVTKSFNRGEC

Source: patent publication US20240270846A1 (published 2024)
